What was measured:
[1] = substrate: OC[C@H]1O[C@@](CO)(O[C@H]2O[C@H](CO)[C@@H](O)[C@H](O)[C@H]2O)[C@@H](O)[C@@H]1O; test: Inhibition of SI-catalyzed hydrolysis of sucrose (SI/sucrose), coupled HK/G6PDH optical test; type: biochemical, hog; details: other: SI/sucrose basic kinetics, substrate, mean, 37° C., pH 7.0
Protocol: A) The activity of the SI enzyme complex was studied using three different substrates, that is to say sucrose, maltose and isomaltose.
B) In the methods described hereinafter for determining the enzyme activity of sucrase/isomaltase and glucoamylase/maltase under the influence of the substances tested, the amount of glucose or fructose released was determined as measured parameter. […] The measurement was made at 37° C. and a pH of 7.0.
(§1) In individual tests, the semimicro assay was used, but this was reduced in some cases to a micro assay.
(§2) C) Before the inhibitor strengths were determined, for each enzyme-substrate combination basic kinetics were established in which not only the Michaelis-Menten constant (KM [mmol/l]) but also the maximum velocity (Vmax [μmol/mLmin]) were determined. […]
(§3) The level of the inhibitor concentrations used depended on the strength of the resulting inhibition. […] The inhibitor constants Ki and Kii were, unless stated otherwise, determined from secondary Lineweaver-Burk plots.

[2] = substrate: OC[C@H]1O[C@H](O[C@H]2[C@H](O)[C@@H](O)[C@H](O)O[C@@H]2CO)[C@H](O)[C@@H](O)[C@@H]1O; test: Inhibition of SI-catalyzed hydrolysis of maltose (SI/maltose), coupled HK/G6PDH optical test; type: biochemical, hog; details: other: SI/maltose basic kinetics, substrate, mean, 37° C., pH 7.0
Protocol: The maltase activity was studied using the substrate maltose.
B) In the methods described hereinafter for determining the enzyme activity of sucrase/isomaltase and glucoamylase/maltase under the influence of the substances tested, the amount of glucose or fructose released was determined as measured parameter. This took place in an enzymatic optical test using hexokinase (HK) and glucose-6-phosphate dehydrogenase (G6PDH) as a coupled detection system (Beutler, H.-O.; in: Methods of Enzymatic Analysis; Bergmeyer, H. U.; Bergmeyer, J.; Graβl, M. (editors); 3rd edition; Vol. VI, 2–10). The measurement was made at 37° C. and a pH of 7.0.
as §1, §2, §3

B1: sucrase/isomaltase (SI) (Sus scrofa) (protein)
chain: MARKKFSGLEISLIVLFAIVTIIAIALVVVLATKTPAVEEISDSTSTPATTRTTTPYPGSGKCPSELNDPINERINCIPDQFPTQTLCATRGCCWKPWNDSIIPWCFFVDNHGYNVEGTTSTNTGLEAKLNRIPSPTLFGDDINSVLLTTQSQTPNRFRFKITDPNNRRYEVPHQFVKEFSGTAASDTLYDVQVIENPFSIKIIRKSNNRILFDTSIGPLVYSDQYLQLSARLSSEYIYGIGEHIHKRFRHDLYWKTWPIFTRDQLPGDNNNNLYGHQTFFMCIEDTSGKSFGVFLMNSNAMEIFIQPTPIVTYRIIGGILDFYIFLGDTPEQVVQQYQELIGRPAMPAYWSLGFQLSRWDYKSLDVVKEVVQRNREAGIPFDTQVTDIDYMEDKKDFTYDHVAFNGLPEFVQDLHDHGQKYVIILDPAISIQKLASGAAYETYDRGTAQNVWINESDGTTAIIGEVWPGLTVYPDFTSPNCIEWWANECSIFHQVVNYDGLWIDMNEVSSFVHGSEKGCSDNKLNYPPFTPGILDKLLYAKTVCMDSVQYWGKQYDVHSLYGYSMAIATEKAVEKVFRNKRSFILTRSTFAGSGSHAAHWLGDNTASWEQMEWSITGMLEFSLFGIPLVGADICGFVVETTEELCRRWMQLGAFYPFSRNHNAQGYEHQDPAFFGQNSLLVNSSKHYLNIRYTLLPFLYTLFYKAHMFGETVVRPILHEFYEDTNSWIEDTQFLWGPSLLITPVLKQGASTVSAYIPNATWYDYETGAKRPWRKQRVDMYLPADKIGLHLRGGYIIPIQQPAVTTTASRKNPLGLIVALDEYNTAEGDFFWDDGETKDTIQNGSYIFYTFSVSNNKLDIMCTHSSYQEGTTLAFETIKILGLIDAVTEVSVVEGDQPMSAHYNFTYDASNQYLLIYNLKFNLGRNFTVQWDQTFLDAEKFTCYPDTDTITKELCEERGCLWQESHLESKAPECFFPKEDNSYLVQSTQYSSLGVTADLQLNTASTRIKLPSDPIPTLRVEVKYHKDYMLQFKIYDPQNKRYEVPVPLNIPTTPTSTYENRLYDVEIKENPFGIQIRRRSTGKVIWDSRLPGFAFNNQFIQISTRLPSEYIYGFGEVEHTAFKRDLNWNTWGMFTRDQPPGYKLNSYGFHPYYMALEDESHAHGVLLLNSNAMDVTFQPTPALTYRIIGGILDFYMFLGPSPEVATKQYHEVIGRPVMPPYWALGFQLCRYGYRNTSQVEEVYNDMVTAQIPYDVQYTDIDYMERQLDFTIGEEFRELPKFVDKIRNEGMRYIIILDPAISGNETEPYPAFDRGQEKDVFVKWPNTSDICWAKVWPDLPNVTIDESLTEDEAVNASRAHVAFPDFFRNSTAEWWAREIIDFYNNQMKFDGLWIDMNEPSSFVNGTTTNQCRNTELNYPPYFPELTKRTEGLHFRTMCMETEQILSDGSSVLHYDVHNLYGWSQVKPTYDALQKATGKRGIVISRSTYPTAGRWAGHWLGDNYAKWDNLDKSIIGMMEFSLFGISYTGADICGFFNNSEYQLCARWMQLGAFYPYSRNHNIAFTRRQDPASWNETFSEMSRNILNIRYTLLPYFYTQMHEIHAYGGTVIRPLLHEFFNEKPTWDIFKQFLWGPAFLVTPVLEPFADTVQGYVPNARWFDYHTGKDIGIRETFHIFSAPLYEINLHVRGGHILPCQEPAQNTFFSRQNFMKLIVAADDNQTAQGNLFWDDGETIDTYERDLYFLVQFNFNKSILTSTILKNSYINRNEMRLGYVLIWGKEKTSVNEVNLIYNGNKETVPFVEDLNQEILNIDLRGLNVTLDEPIEISWS
notes: isolated by papain digestion from hog small intestine mucosa and enriched by ammoniumsulfate precipitation; from tissue; host or cells: hog small intestine mucosa
- Km [1]: 58.8 ± 11.4 mmol/L
- Vmax [1]: 7700 µM/min
- Km [2]: 11.2 ± 2.6 mmol/L
- Vmax [2]: 5900 µM/min

From patent publication US7056900B2, “Disaccharide derivatives for treating hyperglycaemia” (Sudzucker Aktiengesellschaft Mannheim Ochsenfurt, priority 1997, dated 2006)
